Experimental data as given in article PMC10927090, “Plasmodium falciparum contains functional SCF and CRL4 ubiquitin E3 ligases, and CRL4 is critical for cell division and membrane integrity” (PLOS Pathogens, 2024).

How the values were obtained:
[1] = target: T1, GST-tagged C-terminal of PfCullin-1 (601-829 aa) (P. falciparum, UniProt Q8IAU5 601-829); test: far-Western, overlay or dot blot; dot blot protein overlay: different amounts of HisSkp, HisSUMO/Rbx or HisSUMO spotted on nitrocellulose, blocked (3% BSA in PBS-T), overlaid with 10 μg of GST or GST-tagged protein for 12 h at 4°C, detected with anti-GST antibodies; conditions: both partners purified
T1 construct: P. falciparum Cullin-1 (PfCullin-1, PF3D7_0811000), C-terminal coding region, residues 601-829, amplified from cDNA, in pGEX-6P-1; also called GST/Cul1C; GST/PfCul1C; source: E. coli BL21(DE3), purified (glutathione agarose, native conditions); not shown: GST, N-terminal, kept
T1 sequence (looked up): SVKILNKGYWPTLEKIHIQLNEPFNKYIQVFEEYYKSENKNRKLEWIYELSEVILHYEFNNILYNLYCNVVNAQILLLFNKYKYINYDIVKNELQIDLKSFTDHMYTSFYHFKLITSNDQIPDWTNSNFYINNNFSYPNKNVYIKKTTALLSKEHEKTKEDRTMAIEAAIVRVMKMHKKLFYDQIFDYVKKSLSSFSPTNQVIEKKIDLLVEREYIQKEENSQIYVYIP

[2] = target: T2, GST-tagged N-terminal of PfCullin-1 (1-300 aa) (P. falciparum, UniProt Q8IAU5 1-300); test: as above; conditions: both partners purified
T2 construct: P. falciparum Cullin-1 (PfCullin-1, PF3D7_0811000), N-terminal coding region, residues 1-300, in pGEX-6P-1; also called GST/Cul1N; GST/PfCul1N; source: E. coli BL21(DE3), purified (glutathione agarose, native conditions); not shown: GST, N-terminal, kept
T2 sequence (looked up): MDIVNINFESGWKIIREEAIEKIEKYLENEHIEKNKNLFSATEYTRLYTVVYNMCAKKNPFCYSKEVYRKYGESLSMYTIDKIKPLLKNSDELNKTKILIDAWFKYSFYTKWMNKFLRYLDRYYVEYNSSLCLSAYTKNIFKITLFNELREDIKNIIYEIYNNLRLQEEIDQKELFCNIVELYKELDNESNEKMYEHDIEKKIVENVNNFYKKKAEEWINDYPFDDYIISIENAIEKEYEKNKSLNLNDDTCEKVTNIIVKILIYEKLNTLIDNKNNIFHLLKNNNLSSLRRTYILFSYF

Binder	binding result [1]	binding result [2]
6×His/SUMO-tagged PfRbx1 (natural protein, P. falciparum, UniProt O77367 1-107, looked up, P. falciparum Rbx1 (PfRbx1, PF3D7_0319100), complete coding region, subcloned into pSMO; also called HisSUMO/Rbx; HisSUMO/PfRbx1; source: E. coli Rosetta-gami 2(DE3) pLysS, purified (Ni-NTA, native conditions); not shown: His6, N-terminal, kept; SUMO, N-terminal, kept) MADNITNDKRDIFKIHKWSAVAAWSWDISVDNCAICRNHIMDLCIECQAKTTDHENDKDKKIDKEGCTVAWGVCNHAFHLHCISRWIKARQVCPLDNTTWEFQKATD	binds	–
6×His-tagged PfSkp1 (natural protein, P. falciparum, UniProt Q8ID38 1-162, looked up, P. falciparum Skp1 (PfSkp1, PF3D7_1367000), complete coding region amplified from genomic DNA, in pET28a; also called HisSkp; HisPfSkp1; source: E. coli Rosetta-gami 2(DE3) pLysS, purified (Ni-NTA, native conditions); not shown: His6, N-terminal, kept) MKNDKIKLVSFEGDEFIVDKNTASMSTVIMNILEVMTAEEDTIPLPNIKTPILKKIIEYMEYHINNPADEIPKPLITSNLQDVVSSWDFDFVNTDKETLYELIEASNYLDIKPLLDLTCGKIASMMKDKTTEEIRAEFDIVNDFTREEEKQIREENRWCGDI	–	binds
